Measurements reported in publication PMC3320033 (Virology, 2012).

Molecular target: the molecule itself
Assay: cryo-EM structure

Protein | stoichiometry N
Sf6 portal protein (gp3) (natural protein, bacteriophage Sf6, UniProt Q716H2 1-708, looked up) MAETLEKKHERIMLRFDRAYSPQKEVREKCIEATRFARVPGGQWEGATAAGTKLDEQFEKYPKFEINKVATELNRIIAEYRNNRITVKFRPGDREASEELANKLNGLFRADYEETDGGEACDNAFDDAATGGFGCFRLTSMLVNEYDPMDDRQRIAIEPIYDPSRSVWFDPDAKKYDKSDALWAFCMYSLSPEKYEAEYGKKPPTSLDVTSMTSWEYNWFGADVIYIAKYYEVRKESVDVISYRHPITGEIATYDSDQVEDIEDELAIAGFHEVARRSVKRRRVYVSVVDGDGFLEKPRRIPGEHIPLIPVYGKRWFIDDIERVEGHIAKAMDPQRLYNLQVSMLADTAAQDPGQIPIVGMEQIRGLEKHWEARNKKRPAFLPLREVRDKSGNIIAGATPAGYTQPAVMNQALAALLQQTSADIQEVTGGSQAMQQMPSNIAQETVNNLMNRADMASFIYLDNMAKSLKRAGEVWLSMAREVYGSEREVRIVNEDGSDDIAVLSAQVVDRQTGAVVALNDLSVGRYDVTVDVGPSYTARRDATVSVLTNVLSSMLPTDPMRPAIQGIILDNIDGEGLDDFKEYNRNQLLISGIAKPRNEKEQQIVQQAQMAAQSQPNPEMVLAQAQMVAAQAEAQKATNETAQTQIKAFTAQQDAMESQANTVYKLAQARNIDDKAVMEAIRLLKDVAESQQQQFQSPPQSPADLMPS | 12
Sf6 tail plug protein gp7 (natural protein, bacteriophage Sf6, UniProt Q716G8 1-160, looked up) MATVLTKGEIVLFALRKFAIASNASLTDVEPQSIEDGVNDLEDMMSEWMINPGDIGYAFATGDEQPLPDDESGLPRKYKHAVGYQLLLRMLSDYSLEPTPQVLSNAQRSYDALMTDTLVVPSMRRRGDFPVGQGNKYDVFTSDRYYPGDLPLIDGDIPNA | 12
Sf6 tail plug protein gp8 (natural protein, bacteriophage Sf6, UniProt Q716G7 1-472, looked up) MPIQQLPLMKGVGKDFRNADYIDYLPVNMLATPKEILNSSGYLRSFPGIAKRSDVNGVSRGVEYNMAQNAVYRVCGGKLYKGESEVGDVAGSGRVSMAHGRTSQAVGVNGQLVEYRYDGTVKTVSNWPTDSGFTQYELGSVRDITRLRGRYAWSKDGTDSWFITDLEDESHPDRYSAQYRAESQPDGIIGIGTWRDFIVCFGSSTIEYFSLTGATTAGAALYVAQPSLMVQKGIAGTYCKTPFADSYAFISNPATGAPSVYIIGSGQVSPIASASIEKILRSYTADELADGVMESLRFDAHELLIIHLPRHVLVYDASSSANGPQWCVLKTGLYDDVYRAIDFIYEGNQITCGDKLESVTGKLQFDISSQYGLQQEHLLFTPLFKADNARCFDLEVESSTGVAQYADRLFLSATTDGINYGREQMIEQNEPFVYDKRVLWKRVGRIRKNVGFKLRVITKSPVTLSGAQIRIE | 6
Sf6 tail needle (gp9) (natural protein, bacteriophage Sf6, UniProt Q716G6 1-282, looked up) MADSNLNVPVIIQATRLDTSVLPRNIFSQSYLLYVIAQGTDVGNVANKANEAGQGAYDAQVRNDEQDVILADHEQRISAAEATLVNHEERIRQAESTLQDHETRIAQNESDISSLDTRVQSLESQVSDHETRIDALEYATTRKKSEVVYSGVSVTIPTAPTNLVSLLKTLTPSSGTLAPFFDTVNNKMVVFNENKTLFFKLSIVGTWPSGTANRSMQLTFSGSVPDTLVSSRNSATTTDNILLATFFSVDKDGFLATNGSTLTIQSNGASFTATTIKIIAEQ | 3
